In patent US20220017591A1 (AstraZeneca / MedImmune, published 2022):
Positions count from the first letter of the chain named. Read-outs that look alike come from different tables or passages of the source. Each block holds one binder with its values, some of them ahead of it.

How the values were obtained:
Test in all cases: cell-based or functional assay
human RXFP1 [1] = target: T1, human RXFP1 (human, UniProt Q9HBX9 1-757)
T1 sequence (looked up): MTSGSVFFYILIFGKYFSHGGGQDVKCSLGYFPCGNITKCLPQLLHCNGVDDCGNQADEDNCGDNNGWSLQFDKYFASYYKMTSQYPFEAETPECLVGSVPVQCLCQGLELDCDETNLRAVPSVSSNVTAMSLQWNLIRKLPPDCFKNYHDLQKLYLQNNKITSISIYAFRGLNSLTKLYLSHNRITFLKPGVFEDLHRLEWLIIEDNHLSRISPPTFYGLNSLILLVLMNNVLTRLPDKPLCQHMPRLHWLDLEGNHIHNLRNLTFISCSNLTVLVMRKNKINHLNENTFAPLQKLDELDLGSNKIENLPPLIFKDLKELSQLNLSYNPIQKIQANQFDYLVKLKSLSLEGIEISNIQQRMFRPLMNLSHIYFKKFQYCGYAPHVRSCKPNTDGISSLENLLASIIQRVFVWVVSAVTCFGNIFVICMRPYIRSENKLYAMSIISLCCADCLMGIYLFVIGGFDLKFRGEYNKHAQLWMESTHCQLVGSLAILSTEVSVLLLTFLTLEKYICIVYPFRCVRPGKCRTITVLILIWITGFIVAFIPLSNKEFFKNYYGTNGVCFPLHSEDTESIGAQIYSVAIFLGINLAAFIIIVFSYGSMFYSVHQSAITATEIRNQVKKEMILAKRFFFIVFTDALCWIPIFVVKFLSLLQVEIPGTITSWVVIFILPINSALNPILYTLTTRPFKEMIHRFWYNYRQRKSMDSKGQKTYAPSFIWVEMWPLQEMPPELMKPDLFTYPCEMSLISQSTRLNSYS

mouse RXFP1 [2] = target: T2, mouse RXFP1 (mouse, UniProt Q6R6I7 1-758)
T2 sequence (looked up): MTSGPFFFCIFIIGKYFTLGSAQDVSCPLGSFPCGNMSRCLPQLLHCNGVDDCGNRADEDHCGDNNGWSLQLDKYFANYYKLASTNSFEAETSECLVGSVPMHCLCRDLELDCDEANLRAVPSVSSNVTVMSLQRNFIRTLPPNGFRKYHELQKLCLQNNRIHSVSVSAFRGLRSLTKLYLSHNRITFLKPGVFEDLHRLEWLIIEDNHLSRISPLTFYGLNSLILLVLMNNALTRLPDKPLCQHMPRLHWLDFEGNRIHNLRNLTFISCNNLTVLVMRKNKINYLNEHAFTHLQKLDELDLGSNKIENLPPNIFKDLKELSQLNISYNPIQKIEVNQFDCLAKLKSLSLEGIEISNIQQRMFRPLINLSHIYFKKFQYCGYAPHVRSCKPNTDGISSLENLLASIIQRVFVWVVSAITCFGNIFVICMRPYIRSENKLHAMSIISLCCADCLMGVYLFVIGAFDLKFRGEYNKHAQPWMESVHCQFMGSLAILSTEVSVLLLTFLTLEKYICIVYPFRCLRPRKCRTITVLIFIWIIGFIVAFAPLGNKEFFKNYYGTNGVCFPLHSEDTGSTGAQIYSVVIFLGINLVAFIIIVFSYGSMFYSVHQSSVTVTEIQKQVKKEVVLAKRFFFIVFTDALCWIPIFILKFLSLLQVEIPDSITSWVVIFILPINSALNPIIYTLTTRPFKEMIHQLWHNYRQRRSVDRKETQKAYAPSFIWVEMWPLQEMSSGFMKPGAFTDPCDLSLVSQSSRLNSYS

human RXFP2 [3] = target: T3, human RXFP2 (human, UniProt Q8WXD0 1-754)
human RXFP1 [4] = target: T1, human RXFP1; remark: listed apart in the source
mouse RXFP1 [5] = target: T2, mouse RXFP1; remark: listed apart in the source
human RXFP2 [6] = target: T3, human RXFP2; remark: listed apart in the source

T3 sequence (Q8WXD0 whole entry): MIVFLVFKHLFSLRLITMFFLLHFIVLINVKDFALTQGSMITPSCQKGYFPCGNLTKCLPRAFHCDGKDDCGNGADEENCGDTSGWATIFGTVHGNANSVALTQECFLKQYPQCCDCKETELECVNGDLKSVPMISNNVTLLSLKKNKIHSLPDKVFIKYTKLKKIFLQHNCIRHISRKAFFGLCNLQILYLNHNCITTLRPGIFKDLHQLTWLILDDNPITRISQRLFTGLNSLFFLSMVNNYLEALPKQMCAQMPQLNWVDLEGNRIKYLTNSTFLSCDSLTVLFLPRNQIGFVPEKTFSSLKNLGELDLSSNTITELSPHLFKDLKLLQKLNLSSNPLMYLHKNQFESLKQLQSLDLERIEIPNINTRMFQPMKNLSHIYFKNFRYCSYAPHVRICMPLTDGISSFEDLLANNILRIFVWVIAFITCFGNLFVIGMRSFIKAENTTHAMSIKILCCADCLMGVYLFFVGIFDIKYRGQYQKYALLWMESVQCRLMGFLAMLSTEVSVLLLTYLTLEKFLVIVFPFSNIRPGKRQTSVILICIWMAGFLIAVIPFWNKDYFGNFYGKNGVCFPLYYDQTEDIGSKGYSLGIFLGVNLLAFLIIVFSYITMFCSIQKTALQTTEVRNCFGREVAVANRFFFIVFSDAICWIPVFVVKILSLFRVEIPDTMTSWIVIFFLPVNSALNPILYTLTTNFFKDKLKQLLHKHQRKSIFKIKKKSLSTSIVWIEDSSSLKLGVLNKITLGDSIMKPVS

EC50 hRXFP1 (M), cAMP assay (human RXFP1 [4]): 5.45e-11 M | EC50 mRXFP1 (M), cAMP assay (mouse RXFP1 [5]): 4.53e-11 M | EC50 hRXFP2 (M), cAMP assay (human RXFP2 [6]): 9.21e-08 M
B3: RELAX0074 (Fc fusion)
chain 1: DKTHTCPPCPAPEFEGGPSVFLFPPKPKDTLMISRTPEVTCVVVDVSHEDPEVKFNWYVDGVEVHNAKTKPREEQYNSTYRVVSVLTVLHQDWLNGKEYKCKVSNKALPASIEKTISKAKGQPREPQVYTLPPCREEMTKNQVSLWCLVKGFYPSDIAVEWESNGQPENNYKTTPPVLDSDGSFFLYSKLTVDKSRWQQGNVFSCSVMHEALHNHYTQKSLSLSPGGGGGSGGGGSGGGGSGGGGGSQLYSALANKCCHVGCTKRSLASFC
chain 2: DKTHTCPPCPAPEFEGGPSVFLFPPKPKDTLMISRTPEVTCVVVDVSHEDPEVKFNWYVDGVEVHNAKTKPREEQYNSTYRVVSVLTVLHQDWLNGKEYKCKVSNKALPASIEKTISKAKGQPREPQVCTLPPSREEMTKNQVSLSCAVKGFYPSDIAVEWESNGQPENNYKTTPPVLDSDGSFFLVSKLTVDKSRWQQGNVFSCSVMHEALHNHYTQKSLSLSPGGGGGSGGGGSGGGGSGGGGGSSWMEEVIKLCGRELVRAQIAICGMSTWS

EC50 hRXFP1 (M), cAMP assay (human RXFP1 [4]): 9.47e-11 M | EC50 mRXFP1 (M), cAMP assay (mouse RXFP1 [5]): 6.14e-11 M | EC50 hRXFP2 (M), cAMP assay (human RXFP2 [6]): > 1.43e-07 M
B9: RELAX0075 (Fc fusion)
chain 1: B3 chain 1 with S269R, F270I
chain 2: B3 chain 2

EC50 hRXFP1 (M), cAMP assay (human RXFP1 [4]): 6.87e-11 M | EC50 mRXFP1 (M), cAMP assay (mouse RXFP1 [5]): 3.93e-11 M | EC50 hRXFP2 (M), cAMP assay (human RXFP2 [6]): 1.15e-07 M
B10: RELAX0071 (Fc fusion)
chain 1: B3 chain 1 with S269Q
chain 2: B3 chain 2

EC50 hRXFP1 (M), cAMP assay (human RXFP1 [4]): 6.67e-11 M | EC50 mRXFP1 (M), cAMP assay (mouse RXFP1 [5]): 5.02e-11 M | EC50 hRXFP2 (M), cAMP assay (human RXFP2 [6]): 1.07e-07 M
B11: RELAX0070 (Fc fusion)
chain 1: B3 chain 1 with S269I
chain 2: B3 chain 2

EC50 hRXFP1 (M), cAMP assay (human RXFP1 [4]): 8.53e-11 M | EC50 mRXFP1 (M), cAMP assay (mouse RXFP1 [5]): 4.03e-11 M | EC50 hRXFP2 (M), cAMP assay (human RXFP2 [6]): > 2.3e-07 M
B12: RELAX0072 (Fc fusion)
chain 1: B3 chain 1 with S269A
chain 2: B3 chain 2

EC50 hRXFP1 (M), cAMP assay (human RXFP1 [4]): 5.7e-11 M | EC50 mRXFP1 (M), cAMP assay (mouse RXFP1 [5]): 4.15e-11 M | EC50 hRXFP2 (M), cAMP assay (human RXFP2 [6]): 8.63e-08 M
B13: RELAX0073 (Fc fusion)
chain 1: B3 chain 1 with S269Y
chain 2: B3 chain 2

Second part, the binder before the results:

B1: RELAX0020 (Fc fusion)
chain 1: GGAGGACPPCPAPEFEGGPSVFLFPPKPKDTLMISRTPEVTCVVVDVSHEDPEVKFNWYVDGVEVHNAKTKPREEQYNSTYRVVSVLTVLHQDWLNGKEYKCKVSNKALPASIEKTISKAKGQPREPQVYTLPPCREEMTKNQVSLWCLVKGFYPSDIAVEWESNGQPENNYKTTPPVLDSDGSFFLYSKLTVDKSRWQQGNVFSCSVMHEALHNHYTQKSLSLSPGGGGGSGGGGSGGGGSGGGGGSSWMEEVIKLCGRELVRAQIAICGMSTWS
chain 2: GGAGGACPPCPAPEFEGGPSVFLFPPKPKDTLMISRTPEVTCVVVDVSHEDPEVKFNWYVDGVEVHNAKTKPREEQYNSTYRVVSVLTVLHQDWLNGKEYKCKVSNKALPASIEKTISKAKGQPREPQVCTLPPSREEMTKNQVSLSCAVKGFYPSDIAVEWESNGQPENNYKTTPPVLDSDGSFFLVSKLTVDKSRWQQGNVFSCSVMHEALHNHYTQKSLSLSPGGGGGSGGGGSGGGGSGGGGGSQLYSALANKCCHVGCTKRSLARFC
EC50 hRXFP1 (M), cAMP assay (human RXFP1 [1]): 4.41e-11 M | EC50 mRXFP1 (M), cAMP assay (mouse RXFP1 [2]): 2.79e-11 M | EC50 hRXFP2 (M), cAMP assay (human RXFP2 [3]): 3.54e-08 M

B2: RELAX0041 (Fc fusion)
chain 1: DKTHTACPPCPAPEFEGGPSVFLFPPKPKDTLMISRTPEVTCVVVDVSHEDPEVKFNWYVDGVEVHNAKTKPREEQYNSTYRVVSVLTVLHQDWLNGKEYKCKVSNKALPASIEKTISKAKGQPREPQVYTLPPCREEMTKNQVSLWCLVKGFYPSDIAVEWESNGQPENNYKTTPPVLDSDGSFFLYSKLTVDKSRWQQGNVFSCSVMHEALHNHYTQKSLSLSPGGGGGSGGGGSGGGGSGGGGGSQLYSALANHCCHVGCTKRSLARFC
chain 2: B3 chain 2
EC50 hRXFP1 (M), cAMP assay (human RXFP1 [4]): 6.22e-11 M | EC50 mRXFP1 (M), cAMP assay (mouse RXFP1 [5]): 3.17e-11 M | EC50 hRXFP2 (M), cAMP assay (human RXFP2 [6]): 1.18e-07 M

B4: RELAX0052 (Fc fusion)
chain 1: B2 chain 1 with H257K, R266E
chain 2: B3 chain 2
EC50 hRXFP1 (M), cAMP assay (human RXFP1 [4]): 9.67e-11 M | EC50 mRXFP1 (M), cAMP assay (mouse RXFP1 [5]): 5.69e-11 M | EC50 hRXFP2 (M), cAMP assay (human RXFP2 [6]): 1.05e-07 M

B5: RELAX0043 (Fc fusion)
chain 1: B2 chain 1 with H257E
chain 2: B3 chain 2
EC50 hRXFP1 (M), cAMP assay (human RXFP1 [4]): 7.98e-11 M | EC50 mRXFP1 (M), cAMP assay (mouse RXFP1 [5]): 5.58e-11 M | EC50 hRXFP2 (M), cAMP assay (human RXFP2 [6]): > 1.58e-07 M

B6: RELAX0069 (Fc fusion)
chain 1: B3 chain 1 with S269M
chain 2: B3 chain 2
EC50 hRXFP1 (M), cAMP assay (human RXFP1 [4]): 5.76e-11 M | EC50 mRXFP1 (M), cAMP assay (mouse RXFP1 [5]): 3.69e-11 M | EC50 hRXFP2 (M), cAMP assay (human RXFP2 [6]): > 1.62e-07 M

B7: RELAX0022 (Fc fusion)
chain 1: B1 chain 2 with C130Y
chain 2: B1 chain 1 with C135S
EC50 hRXFP1 (M), cAMP assay (human RXFP1 [1]): 4.74e-11 M | EC50 mRXFP1 (M), cAMP assay (mouse RXFP1 [2]): 3.28e-11 M

B8: RELAX0053 (Fc fusion)
chain 1: B2 chain 1 with H257K, R266H
chain 2: B3 chain 2
EC50 hRXFP1 (M), cAMP assay (human RXFP1 [4]): 7.15e-11 M | EC50 mRXFP1 (M), cAMP assay (mouse RXFP1 [5]): 4.36e-11 M | EC50 hRXFP2 (M), cAMP assay (human RXFP2 [6]): > 1.79e-07 M

B14: RELAX0024 (Fc fusion)
chain 1: B3 chain 1 with Y129C, C134S, W146S, L148A, Y187V, S269R
chain 2: B3 chain 2 with C129Y, S134C, S146W, A148L, V187Y
EC50 hRXFP1 (M), cAMP assay (human RXFP1 [1]): 4.6e-11 M | EC50 mRXFP1 (M), cAMP assay (mouse RXFP1 [2]): 1.56e-11 M | EC50 hRXFP2 (M), cAMP assay (human RXFP2 [3]): 4.26e-08 M

B15: RELAX0063 (Fc fusion)
chain 1: B3 chain 1 with S269R, F270A
chain 2: B3 chain 2
EC50 hRXFP1 (M), cAMP assay (human RXFP1 [4]): 1.96e-10 M | EC50 mRXFP1 (M), cAMP assay (mouse RXFP1 [5]): 4.46e-11 M | EC50 hRXFP2 (M), cAMP assay (human RXFP2 [6]): > 1.38e-07 M
